Assay results as given in patent US20060253917A1 (published 2006).

T1: OsMADS1 aa 95-257 (Oryza sativa, UniProt A2XDY1 95-257)
T1 construct: prey, AD fusion; also called PN19788
T1 sequence: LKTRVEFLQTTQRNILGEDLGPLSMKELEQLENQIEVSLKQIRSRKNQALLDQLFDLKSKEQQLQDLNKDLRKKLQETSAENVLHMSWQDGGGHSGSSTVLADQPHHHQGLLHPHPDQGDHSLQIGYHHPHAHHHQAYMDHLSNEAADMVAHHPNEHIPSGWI

T2: OsFDRMADS8 aa 69-233 (Oryza sativa, UniProt A2Z9Q7 69-233)
T2 construct: prey, AD fusion; also called PN20698
T2 sequence: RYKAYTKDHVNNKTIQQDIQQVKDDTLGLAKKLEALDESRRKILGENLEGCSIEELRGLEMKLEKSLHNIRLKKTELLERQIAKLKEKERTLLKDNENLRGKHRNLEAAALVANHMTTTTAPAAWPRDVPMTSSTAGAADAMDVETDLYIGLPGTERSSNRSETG

T3: OsMADS8 aa 127-248 (Oryza sativa, UniProt Q9SAR1 127-248)
T3 construct: prey, AD fusion; also called PN20778
T3 sequence: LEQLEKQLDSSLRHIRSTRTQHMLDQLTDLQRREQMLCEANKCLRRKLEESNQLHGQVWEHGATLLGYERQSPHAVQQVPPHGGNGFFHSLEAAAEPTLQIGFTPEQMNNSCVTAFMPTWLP

T4: OsFDRMADS6 aa 100-246 (Oryza sativa, UniProt P0C5B1 100-246)
T4 construct: prey, AD fusion; also called PN19766
T4 sequence: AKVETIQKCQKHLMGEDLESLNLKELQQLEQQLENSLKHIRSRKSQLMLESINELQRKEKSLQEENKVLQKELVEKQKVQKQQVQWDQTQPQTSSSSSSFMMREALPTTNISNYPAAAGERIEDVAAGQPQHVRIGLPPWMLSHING

T5: OsFDRMADS8 aa 94-230 (Oryza sativa, UniProt A2Z9Q7 94-230)
T5 construct: prey, AD fusion; also called PN20698
T5 sequence: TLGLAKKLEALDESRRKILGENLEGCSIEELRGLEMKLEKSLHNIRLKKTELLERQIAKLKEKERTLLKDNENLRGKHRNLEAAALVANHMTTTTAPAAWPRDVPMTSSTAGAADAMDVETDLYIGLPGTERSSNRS

T6: OsFDRMADS6 aa 93-244 (Oryza sativa, UniProt P0C5B1 93-244)
T6 construct: prey, AD fusion; also called PN19766
T6 sequence: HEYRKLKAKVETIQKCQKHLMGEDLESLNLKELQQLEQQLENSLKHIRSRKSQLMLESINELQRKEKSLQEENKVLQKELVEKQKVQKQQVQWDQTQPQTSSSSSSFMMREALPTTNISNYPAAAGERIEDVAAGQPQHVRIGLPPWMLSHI

T7: OsMADS1 aa 82-241 (Oryza sativa, UniProt A2XDY1 82-241)
T7 construct: prey, AD fusion; also called PN19788; O. sativa MADS box protein MADS1
T7 sequence: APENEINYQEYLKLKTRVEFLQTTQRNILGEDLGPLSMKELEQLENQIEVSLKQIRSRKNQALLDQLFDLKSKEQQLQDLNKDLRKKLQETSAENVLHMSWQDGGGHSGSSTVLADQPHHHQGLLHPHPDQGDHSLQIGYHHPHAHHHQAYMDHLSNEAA

T8: OsMADS1 aa 71-257 (Oryza sativa, UniProt A2XDY1 71-257)
T8 construct: prey, AD fusion; also called PN19788
T8 sequence: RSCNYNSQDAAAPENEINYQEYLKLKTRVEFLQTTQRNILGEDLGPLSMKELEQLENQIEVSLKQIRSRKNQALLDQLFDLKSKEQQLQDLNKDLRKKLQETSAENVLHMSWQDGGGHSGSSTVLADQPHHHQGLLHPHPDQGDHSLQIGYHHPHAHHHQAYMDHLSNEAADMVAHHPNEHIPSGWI

T9: OsMADS6 aa 70-250 (Oryza sativa, UniProt Q6EU39 70-250)
T9 construct: prey, AD fusion; also called PN20233; O. sativa MADS box protein MADS6
T9 sequence: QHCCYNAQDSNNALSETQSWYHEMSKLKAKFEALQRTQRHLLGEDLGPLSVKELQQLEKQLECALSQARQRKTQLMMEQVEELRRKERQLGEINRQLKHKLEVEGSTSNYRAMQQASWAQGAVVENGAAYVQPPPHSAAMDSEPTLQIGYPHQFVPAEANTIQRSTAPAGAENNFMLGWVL

T10: OsRAP1B aa 1-158 (Oryza sativa, UniProt Q10CQ1 1-158)
T10 construct: prey, AD fusion; also called PN20232; O. sativa AP1-like MADS box protein RAP1B
T10 sequence: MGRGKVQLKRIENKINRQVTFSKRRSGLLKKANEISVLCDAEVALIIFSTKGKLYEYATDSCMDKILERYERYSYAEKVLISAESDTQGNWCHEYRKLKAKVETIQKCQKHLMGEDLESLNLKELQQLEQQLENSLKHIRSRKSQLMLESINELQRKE


Assays:
[1] = target: T1, OsMADS1 aa 95-257; assay: Y2H; input trait library
Procedure, shortened: (§1)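 Protein-protein interactions were detected in an automated, high-throughput yeast two-hybrid assay from Myriad Genetics Inc. (Salt Lake City, Utah), with a bait clone encoding a defined amino-acid fragment of a rice protein screened against the input trait or output trait rice prey library. Interacting proteins were identified by BLAST comparison of the encoding sequences of retrieved prey clones against databases.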

[2] = target: T2, OsFDRMADS8 aa 69-233; assay: Y2H; input trait library
Procedure, shortened: as §1

[3] = target: T3, OsMADS8 aa 127-248; assay: Y2H; output trait library
Procedure, shortened: as §1

[4] = target: T4, OsFDRMADS6 aa 100-246; assay: Y2H; output trait library
Procedure, shortened: as §1

[5] = target: T5, OsFDRMADS8 aa 94-230; assay: Y2H; output trait library
Procedure, shortened: as §1

[6] = target: T6, OsFDRMADS6 aa 93-244; assay: Y2H; output trait library
Procedure, shortened: as §1

[7] = target: T7, OsMADS1 aa 82-241; assay: Y2H; output trait library
Procedure, shortened: as §1

[8] = target: T8, OsMADS1 aa 71-257; assay: Y2H; output trait library
Procedure, shortened: as §1

[9] = target: T9, OsMADS6 aa 70-250; assay: Y2H; output trait library
Procedure, shortened: as §1

[10] = target: T10, OsRAP1B aa 1-158; assay: Y2H; output trait library
Procedure, shortened: as §1

| binding result [1] | binding result [2] | binding result [3] | binding result [4] | binding result [5] | binding result [6] | binding result [7] | binding result [8] | binding result [9] | binding result [10] | Binder |
| --- | --- | --- | --- | --- | --- | --- | --- | --- | --- | --- |
| binds | binds | binds | binds | binds | – | – | – | – | – | OsRAP1B aa 100-247 (other, bait, Gal4 DBD fusion; also called PN20232) AKVETIQKCQKHLMGEDLESLNLKELQQLEQQLENSLKHIRSRKSQLMLESINELQRKEKSLQEENKVLQKELVEKQKVQKQQLQWDQTQPQTISSSSSFMMREALPTTNISNYPAAAGERIEDVPAGQPQHVRIGLPPWMLSHING |
| – | – | – | – | – | binds | binds | binds | binds | binds | OsMADS45 aa 50-198 (other, bait, Gal4 DBD fusion; also called PN20231; O. sativa MADS box protein MADS45) NRGKLYEFCSTQSMTKTLEKYQKCSYAGPETAVQNRESEQLKASRNEYLKLKARVENLQRTQRNLLGEDLDSLGIKELESLEKQLDSSLKHVRTTRTKHLVDQLTELQRKEQMVSEANRCLRRKLEESNHVRGQQVWEQGCNLIGYERQ |
